Patent US6875741 (Novo Nordisk, dated 2005)
No end group written: not given here.

Target: T1, human insulin receptor (HIR) (human, UniProt P06213 28-1382, limits assumed)
T1 construct: solubilized receptor from transfected cells
Assay: 125I-insulin competition, solubilized HIR

| Binder | Kd [nM] |
| --- | --- |
| CGFHENFYDWFVRQVSKK (also: N-N dimer, two chains linked at Cys1, N-N dimer) [S170] | 700 |
| DWLQRNANFYDWFVAEL (not fully specified; C-terminal Lig′, linker 14) [S300] | 50 |
| GSLDESFYDWFERQLGKKX (not fully specified; C-terminal Lig′, linker 24, C-C dimer) [S361] | 2200 |
| XGSLDESFYDWFERQLGKK (not fully specified; N-terminal Lig′, linker 24, N-N dimer) [S362] | 110 |
| XGSLDESFYDWFERQLGKK (not fully specified; N-terminal Ald, linker 17, N-N dimer) [S374] | 180 |
| XGSLDESFYDWFERQLGKK (N-terminal Ald, linker 19, N-N dimer) [S376] | 160 |
| EEDWLQRNANFYDWFVAELX (C-terminal Lig′ (printed LiG′), linker 23, C-C dimer) [S381] | 120 |

Target: T2, soluble human insulin receptor-immunoglobulin heavy chain chimera (human, UniProt P06213 28-956, limits assumed)
T2 construct: extracellular domain; also called sIR-Fc; slR-Fc; not shown: immunoglobulin heavy chain constant domains
Assay: ratio of IC50 on rhIGF-1R (TR-FRET vs b-20E2) to IC50 on sIR-Fc (FP vs FITC-RP9)

| Binder | Binding Ratio IGF-1R/IR |
| --- | --- |
| FHENFYDWFVQRVSKK (Formula 1, Site 1 peptide) [H2C (D117)] | 9 |
| DYKDFYDAIDQLVRGSARAGGTRD (Formula 2, Site 1 peptide) [20E2 (D118)] | 1.9 |
| GSLDESFYDWFERQLG (Formula 1, Site 1 peptide; also called H2C-PD1-IGFR) [RP9] | 1.4 |
| GIISQSCPESFYDWFAGQVSDPWWCW (Formula 1, Site 1 peptide; also called H2CA-4-G9-IGFR; S326) [G33] | 1.3 |
